Data on one substance can be found in publication PMC4990970.

Test [1] has as its target AtBAG5/Hsc70 complex (AtBAG5-long/Hsp70) (Arabidopsis thaliana | human) (UniProt O65373). The test is described as follows: ITC; iTC200, room temperature, 20 mM Tris-HCl pH 7.5, 500 mM NaCl, 5 mM EGTA (apo-CaM, absence of calcium); 0.05-0.1 mM in the cell, 0.5-1.0 mM in the syringe. On the technique in general: ITC needs no label: the signal is the heat of the interaction.

For test [2] the target is unchanged. The test is described as follows: ITC; iTC200, room temperature, 20 mM Tris-HCl pH 7.5, 500 mM NaCl, 10 mM CaCl2 (holo-CaM, presence of calcium); 0.05-0.1 mM in the cell, 0.5-1.0 mM in the syringe.

In the case of “Calmodulin (CaM) (from UniProt P0DP23 1-149) (natural protein)”, the Kd was determined as 0.39 µM in test [1] and 21.2 µM in test [2].

Usually Kd stands for a measure of binding affinity in units of concentration.
